The assay deals with CAX^CK31 (Ca2+/H+ antiporter of Caulobacter sp. K31), purified, lacking tags (Caulobacter sp. K31). In words: SEC-MALS.

Regarding “CAX^CK31 (Ca2+/H+ antiporter of Caulobacter sp. K31), purified, lacking tags (natural protein)”, the stoichiometry N was 2.

For the origin of these results see paper PMC3571656.
